# Article PMC8852740, “Neutralization of Typhoid Toxin by Alpaca-Derived, Single-Domain Antibodies Targeting the PltB and CdtB Subunits” (Infection and Immunity, 2021)
# “And” between values parts separate entries of the source, which are not always exact repeats. Identical values can stand only once.
# Molecular target: T1, PltB homopentamer, biotinylated (Salmonella enterica serovar Typhi; …, UniProt Q8Z6A3, biotinylated with EZ-link NHS-Biotin (sites not given))
# Assay: not given
# Conditions: not given
row,Binder,binding result
1,T2H5 (VHH) VHH: QVQLVETGGGLVQAGGSLRLSCTASGFTFDEYAIGWFRQAPGKEREMILCISSVGGSTYYADSVKGRFTISSDNAKNTMYLQMSSLKPEDTAKYYCAVDVTPPHSCNALDTWGQGTLVTVSS,binds
2,T2H3 (VHH) VHH: QVQLAESGGGLVQAGGSLRLSCVASGRTFDINTMAWYRQAPGKQRDFVASSYHGGITNYADSVKGRFTMSRDNAKNTVYLQMNSLKPEDTGVYYCTWRGGGVYWGQGTQVTVSS,binds
3,T2B12 (VHH) VHH: QLQLVESGGGSVQAGGSLRLSCAASGFTFGDYAIAFFRQAPGKEREGVSCISTYDGSTYYGDSVKGRFTISSDNAKNTVYLQMNSLKPEDTAVYYCAADRADCGWYYPYDYWGQGTQVTVSS,binds
4,T2D8 (VHH) VHH: QLQLVESGGGLVQPGGSLRLSCAASGFTLDYYAIGWFRQAPGKEREWVSCLGRSSSSTSYVADSVQGRFTISRDNAKNTVYLQMNSLKPEDTAVYYCAADLSSQISSCNALDTWGQGTLVTVSS,binds
5,T2G7 (VHH) VHH: QVQLVESGGGSVQAGGSLRLSCAASGFTFDDYAIGWFRQAPGKEREMILCINSRAGMTSYSADSVKGRFTVSVNSAKNTAYLQMNSLKPEDTAKYYCAADVTHPHSCNALDAWGQGTLVTVSS,binds
6,T2E11 (VHH) VHH: QLQLVETGGGLVQPGGSLRLSCAASGFSLDYYAIGWFRQAPGKEREGVGCISSSGSTTKYADSVKGRFTISRDNAKNTVYLQMNSLKPEDTAVYYCAARNPADLNCGAYVLNGEYWGQGTQVTVPS,binds
7,T2C5 (VHH) VHH: QVQLVETGGGLVQPGGSLRLSCATSGFTFSSTTMTWVRQAPGKGLEWLSGIYSDGRTEYADSVKGRFTISRDNAKNTLYLEMNSLKPEDTAVYFCAKGLLGAERGQGTRVTVSS,binds
8,T2C7 (VHH) VHH: QLQLAESGGGLVQAGGSLRLSCVVSGRTDSSYAVGWFRQAPGKEREFVAAIMWSGISTYYADSVKGRFTISLDNAKSTVYVQMNSLKPEDTAVYYCAAWKGATVTDDDPWGQGTQVTVSS,binds
9,T2E12 (VHH) VHH: QVQLAESGGGLVQAGGSLRLSCAASGFTFDDYAVAWFRQAPGKAREMVLCISSSGGSSYYADFVKGRFTVPSNSAKNTVYLQMNSLKPEDTAKYICAVDATYPHSCNALDAWGQGTLVTVSS,binds

# Molecular target: T2, typhoid toxin (A2B5 holotoxin: CdtB, PltA and a PltB homopentamer), biotinylated (Salmonella enterica serovar Typhi; …, UniProt Q8Z6A7;Q8Z6A4;Q8Z6A3)
# T2 construct: also called TyT; biotinylated typhoid toxin; not shown: His6, C-terminal, kept; copies: 1 + 1 + 5
# Assay: ELISA; […] (30 min, 37°C) […]
# Conditions: both partners purified
row,Binder,binding result
1,"T4B5 (VHH, also called anti-CdtB VHH T4B5; source: E. coli Rosetta-gami 2(DE3)pLacI, pET32b+, purified (Ni-NTA)) VHH: QLQLAESGGGLVQPGGSLRLSCAASGSIFSINVMGWYRQVPGKQREWVASITRGGGTLYADSVKGRFTISRDSAKNTVYLQMNSLKPEDTAVYYCNADLMEDSDSDYHEYWGQGTQVTVSS",binds
2,"T4F3 (VHH, also called anti-CdtB VHH T4F3; source: E. coli Rosetta-gami 2(DE3)pLacI, pET32b+, purified (Ni-NTA)) VHH: QLQLVETGGGLVQPGGSLTLSCAASGFTLNYWHMGWYRQAPGKQRELVATISGHGITNYADSVKGRFTISRDDAKNSVYLQMNSLKPEDTAVYYCNFISRTNDWGQGTQVTVSS",binds
3,"T4C11 (VHH, also called anti-CdtB VHH T4C11; source: E. coli Rosetta-gami 2(DE3)pLacI, pET32b+, purified (Ni-NTA)) VHH: QLQLVETGGGLVQPGGSLRLSCAASGSIFSINIMGWYRQAPGKQRESVAVITRGGGTMYADSVKGRFTISRDSAKNTVYLQMNSLKPEDTAVYYCNADLMQAVDSEYEDYWGQGTQVTVSS",binds

# Molecular target: T1, PltB homopentamer, biotinylated
# Assay: ELISA; […] (30 min, 37°C) […]
# Conditions: both partners purified
row,Binder,binding result
1,"T2E7 (VHH, also called anti-PltB VHH T2E7; source: E. coli Rosetta-gami 2(DE3)pLacI, pET32b+, purified (Ni-NTA)) VHH: QLQLVESGGGLVQPGGSLRLSCAASGFTLDYYAIGWFRQAPGKERERVSCISGRDGGTYYADSVKGRFAISRDNAQNTVYLQMSRLKPEDTAAYYCAADYADNYCTGSFPPDYWGQGTQVTVSS",binds
2,"T2G4 (VHH, also called anti-PltB VHH T2G4; source: E. coli Rosetta-gami 2(DE3)pLacI, pET32b+, purified (Ni-NTA)) VHH: QVQLVESGGGSLRLSCAVFGRTFSGDAVGWFRQAPGKEREFVAAINWNGRSTDYADSVKGRFTISRDDTENTVYLQMNSLKPEDTAVYYCATSREDYGSSFLRGSYDYLGQGTQVTVSS",binds
3,"T2F3 (VHH, also called anti-PltB VHH T2F3; source: E. coli Rosetta-gami 2(DE3)pLacI, pET32b+, purified (Ni-NTA)) VHH: QVQLAETGGALVQTGGSLRLSCAVSGRNSEIQGLGWYRQAPGKEREFVATINWRSGATYYDDSVKGRFSISRDNAENTVSLQMNDLKPDDTAVYYCGAGMSPIARMDYWGQGTQVTVSS",binds
4,"T2E1 (VHH, also called anti-PltB VHH T2E1; source: E. coli Rosetta-gami 2(DE3)pLacI, pET32b+, purified (Ni-NTA)) VHH: QVQLAESGGGFVQAGGSLRLSCVESGRSFSVFAMGWFRQAPGKERELVAAISWRGDSTYYADLVKGRFTISRDNAKNAVYLQMNSLKPEDTAVYYCAADRSDYVVTHEYDYWGQGTQVTISP",binds
5,"T2G9 (VHH, also called anti-PltB VHH T2G9; source: E. coli Rosetta-gami 2(DE3)pLacI, pET32b+, purified (Ni-NTA)) VHH: QVQLVETGGGSVQAGGSLRLSCAASGFTFDDYAIGWFRQAPGKEREMILCINSRGGSTSYYADSVKGRFTVSVNSAKNTAYLQMNSLKPEDTAVYYCAADVTPPHSCNALDAWGQGTLVTVSS",binds
6,"T2G11 (VHH, also called anti-PltB VHH T2G11; source: E. coli Rosetta-gami 2(DE3)pLacI, pET32b+, purified (Ni-NTA)) VHH: QVQLVETGGLVQAGGSLSLSCAVSGRTFNLLHLAWFRQAPGNERDLVASISGSLGSVYYADSVRGRFTISRDAANNTVYLQMNSLKLEDTAVYYCAGAPIFDRFSSSSSSYDYWGQGTQVTVSS",binds
7,"T2G1 (VHH, also called anti-PltB VHH T2G1; source: E. coli Rosetta-gami 2(DE3)pLacI, pET32b+, purified (Ni-NTA)) VHH: QVQLAESGGGLVQAGGSLRLSCAASGLTFDKYAIGWFRQAPGKERELVSCISTNYGSTYYADSVKGRFTISTDNAKNTVYLQMNGLKPEDTAVYYCAADTRSSWPSCNALDTWGQGTLVTVSS",binds
8,"T2F11 (VHH, also called anti-PltB VHH T2F11; source: E. coli Rosetta-gami 2(DE3)pLacI, pET32b+, purified (Ni-NTA)) VHH: QVQLVETGGGLVQPGGSLRLSCVLSGSDLAYYNVGWFRQAPGKEREGVACTSRVSDTKYYADSVKARFTVARDNAKNTVNLQMNSLRPEDTAVYSCALLRWCTTEGSDSEGMGHWGKGTLVTVSS",binds
9,"T2F7 (VHH, also called anti-PltB VHH T2F7; source: E. coli Rosetta-gami 2(DE3)pLacI, pET32b+, purified (Ni-NTA)) VHH: QVQLVESGGGLVQPGGSLRLSCAASGFDFSRSTLSWVRQSPGKDFEWVSDINSGSTLTNYGDSVKGRFTTSRDNAKNTLYLQMNSLKPEDTAVYYCVKGMWITRDQPRGQGTQVTVSS",binds
10,"T2F2 (VHH, also called anti-PltB VHH T2F2; source: E. coli Rosetta-gami 2(DE3)pLacI, pET32b+, purified (Ni-NTA)) VHH: QVQLAESGGGLVQAGGSLRLSCVASGRTFSSYAMGWFRRAPGKEREFVASILWSDGSAAYADSVEGRFTISRDNAKNTVHLQMNSLQPEDTAVYYCAAEARGSGTRWGNEYDYWGQGTQVTVSS",binds
11,"T2F6 (VHH, also called anti-PltB VHH T2F6; source: E. coli Rosetta-gami 2(DE3)pLacI, pET32b+, purified (Ni-NTA)) VHH: QLQLAESGGGLVQPGGSLRLSCAVSGFMVNSYDIGWFRQAPGKAREGISCINTSGDTPNYADSVKGRFTISRDNAKNMVYLQMNSLKPEDTATYFCAANRMTRCSDYNGYPYWGQGTQVIVSS",binds

# Molecular target: T3, typhoid toxin (A2B5 holotoxin: CdtB, PltA and a PltB homopentamer), biotinylated (Salmonella enterica serovar Typhi; …, UniProt Q8Z6A7;Q8Z6A4;Q8Z6A3)
# T3 construct: also called TyT; biotinylated typhoid toxin; not shown: His6, C-terminal, kept; copies: 1 + 1 + 5
# Assay: BLI; Octet Red96e; […] (2 µg/mL) […]; association 5 min, dissociation 30 min; 25°C; 1:1 model; […]
# Conditions: both partners purified
Binder,Kd,koff,kon
"T2E7 (VHH, also called anti-PltB VHH T2E7; source: E. coli Rosetta-gami 2(DE3)pLacI, pET32b+, purified (Ni-NTA)) VHH: QLQLVESGGGLVQPGGSLRLSCAASGFTLDYYAIGWFRQAPGKERERVSCISGRDGGTYYADSVKGRFAISRDNAQNTVYLQMSRLKPEDTAAYYCAADYADNYCTGSFPPDYWGQGTQVTVSS",0.629 nM and 0.618 nM and 0.911 nM,0.000278 s⁻¹ and 0.000313 s⁻¹ and 0.000369 s⁻¹,443000 M⁻¹ s⁻¹ and 507000 M⁻¹ s⁻¹ and 405000 M⁻¹ s⁻¹
"T2G9 (VHH, also called anti-PltB VHH T2G9; source: E. coli Rosetta-gami 2(DE3)pLacI, pET32b+, purified (Ni-NTA)) VHH: QVQLVETGGGSVQAGGSLRLSCAASGFTFDDYAIGWFRQAPGKEREMILCINSRGGSTSYYADSVKGRFTVSVNSAKNTAYLQMNSLKPEDTAVYYCAADVTPPHSCNALDAWGQGTLVTVSS",–,–,155000 M⁻¹ s⁻¹ and 139000 M⁻¹ s⁻¹ and 105000 M⁻¹ s⁻¹
"T4E8 (VHH, also called anti-CdtB VHH T4E8; source: E. coli Rosetta-gami 2(DE3)pLacI, pET32b+, purified (Ni-NTA)) VHH: QLQLVESGGGLVQAGGSLRLSCAASGMSFSTYTMGWYRQAPGKRRGLVATISSGGSTNYADSVKGRFTISRDNAKDTVYLQMNSLKPEDTAEYYCNVKGDYQTPNMGYWGQGTRVTVSS",2.03 nM and 4.44 nM,–,53300 M⁻¹ s⁻¹ and 73600 M⁻¹ s⁻¹

# Molecular target: T2, typhoid toxin (A2B5 holotoxin: CdtB, …)
# Assay: as above
# Conditions: both partners purified
Binder,kon,Kd,koff
"T4E5 (VHH, also called anti-CdtB VHH T4E5; source: E. coli Rosetta-gami 2(DE3)pLacI, pET32b+, purified (Ni-NTA)) VHH: QLQLVETGGGLVQPGGSLKLSCVASGSIFSINVMGWFRQASGKQREVVAQITRGGGTIYADSVKGRFTISRDDAKNSVYLQMNSLNPEDTAVYLCNADLMQGIDSEYEDYWGQGTQVTVSS",424000 M⁻¹ s⁻¹ and 382000 M⁻¹ s⁻¹ and 306000 M⁻¹ s⁻¹,–,–
"T4C4 (VHH, also called anti-CdtB VHH T4C4; source: E. coli Rosetta-gami 2(DE3)pLacI, pET32b+, purified (Ni-NTA)) VHH: QVQLAESGGGLVQPGGSLRLSCAASGSIFSINVMGWYRQAPGKQRESVAVITRGGGTMYADSVKGRATISRDSAKNTVYLQMNSLKPEDTAVYYCNADLMQAVDSEYEDYWGQGTQVTVSS",929000 M⁻¹ s⁻¹ and 2.36e+06 M⁻¹ s⁻¹,0.284 nM and 0.11 nM,0.000264 s⁻¹ and 0.00026 s⁻¹
"T4C12 (VHH, also called anti-CdtB VHH T4C12; source: E. coli Rosetta-gami 2(DE3)pLacI, pET32b+, purified (Ni-NTA)) VHH: QVQLAESGGGLVQPGGSLRLSCAASGSIFSINVMGWYRQAPGKQREFVAVITRGGSTDYADSVKGRFTISRDNAKNTVYLQMNSLKPEDTAVYYCNADLMQTSASEYEDCWGQGTQVTVSS",–,2.84 nM and 1.55 nM,0.00121 s⁻¹ and 0.00243 s⁻¹
